Patent US20170035877A1
pKd: −log10 of the molar value.

Assays:
[1] = molecular target: JRFL SOSIP.663 trimer, negatively selected (flow-through of the F105 column) (HIV-1 JRFL (subtype B)) (UniProt P20871); assay: negative-stain EM, 2D class averages
[2] = molecular target: 16055 SOSIP.663 trimer, negatively selected (flow-through of the GE136 column) (HIV-1 16055 (subtype C)); assay: negative-stain EM, 2D class averages
[3] = molecular target: 16055 SOSIP (HIV-1 16055 (subtype C)); assay: ITC; details: Fab
[4] = molecular target: 16055 gp120 (HIV-1 16055 (subtype C))
[5] = molecular target: JRFL SOSIP.663 trimer, negatively selected (flow-through of the F105 column) (HIV-1 JRFL (subtype B)) (UniProt P20871); assay: negative-stain EM, stoichiometry from micrographs
[6] = molecular target: 16055 SOSIP.663 trimer, negatively selected (flow-through of the GE136 column) (HIV-1 16055 (subtype C)); assay: negative-stain EM, stoichiometry from micrographs

Substance: 19b Fab
- percent of trimers with one Fab bound [1]: 25%
- percent of trimers with one Fab bound [2]: 22%

Substance: VRC01 Fab
- pKd [3]: 7.01

Substance: F105
- pKd [4]: 7.52

Substance: PGT151 Fab
- percent of trimers with one Fab bound [5]: 28%
- percent of trimers with three Fabs bound [5]: 11%
- percent of trimers with two Fabs bound [5]: 36%
- percent of trimers with one Fab bound [6]: 34%
- percent of trimers with three Fabs bound [6]: 0%
- percent of trimers with two Fabs bound [6]: 20%
